The target of test [1] is T1, peptide (mNPTXR) representing the mouse NPTXR epitope space (mouse, also: biotinylated, position not given here).
T1 construct: Immobilized on the ELISA plate by streptavidin capture; also called Bio-mNPTXR; Strep + Bio-mNPTXR
T1 peptide: CESGLPRGLQDAGPRRDT
In words: ELISA, biotinylated mNPTXR peptide captured by streptavidin, antibody titrated from 10 ug/ml, anti-human IgG Fc-HRP detection. On the technique in general: In an ELISA, binding on a coated surface is turned into a signal by an enzyme label.

The target in test [2] is T2, recombinant human NPTXR (rhNPTXR; Ala24 to Ala500 of Acc no. #O95502) (human, UniProt O95502 24-500).
T2 construct: range 24-500; Recombinant protein immobilized on the ELISA plate
T2 sequence (looked up): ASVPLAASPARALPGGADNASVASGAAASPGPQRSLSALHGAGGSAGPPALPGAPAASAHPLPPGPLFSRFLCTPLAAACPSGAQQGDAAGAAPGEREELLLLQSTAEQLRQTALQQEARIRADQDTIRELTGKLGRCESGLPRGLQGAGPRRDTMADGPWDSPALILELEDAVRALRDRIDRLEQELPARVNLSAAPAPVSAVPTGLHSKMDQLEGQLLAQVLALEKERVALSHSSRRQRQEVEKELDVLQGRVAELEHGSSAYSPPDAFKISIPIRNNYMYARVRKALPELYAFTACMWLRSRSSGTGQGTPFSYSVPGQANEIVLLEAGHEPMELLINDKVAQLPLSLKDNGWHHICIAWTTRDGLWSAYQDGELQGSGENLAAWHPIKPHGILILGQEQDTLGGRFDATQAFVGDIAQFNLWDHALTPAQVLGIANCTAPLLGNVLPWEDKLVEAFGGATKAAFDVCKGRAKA
In words: ELISA, rhNPTXR immobilized on plate, antibody titrated from 10 ug/ml, anti-human IgG Fc-HRP detection.

Where no end group is shown, it is not given here.

The EC50 is the midpoint of the concentration-response curve.

B1: YB-800 (antibody, human IgG1, V domains shown)
VH: QVQLVQSGAEVKKPGASVKVSCKASGYTFTNYGMNWVRQAPGQRLEWMGWINTDIGEPTYSQKFQGRVTITRDTSASTAYMELSSLRSEDTAVYYCAREMDVWGQGTTVTVSS
VL: DIQMTQSPSSLSASVGDRVTITCRASQSISDYLHWYQQKPGKAPKLLIKYVSHSISGVPSRFSGSGSGTDFTLTISSLQPEDFATYYCLNGHSFPFTFGGGTKVEIK
As for B1, the EC50 turned out to be 0.0309 µg/mL in test [1] and 0.0271 µg/mL in test [2].

The values are drawn from patent EP4635983A1 (Ymmunobio AG, dated 2025).
